Test results taken from patent US20140080766A1 (MIT, published 2014).

Target: C7LLO (CEA-binding Fn3 - listeriolysin O fusion protein)

B1: carcinoembryonic antigen (CEA) on HT-1080(CEA) and HT-29 cells (other, human, UniProt P06731 35-685, looked up)
chain: KLTIESTPFNVAEGKEVLLLVHNLPQHLFGYSWYKGERVDGNRQIIGYVIGTQQATPGPAYSGREIIYPNASLLIQNIIQNDTGFYTLHVIKSDLVNEEATGQFRVYPELPKPSISSNNSKPVEDKDAVAFTCEPETQDATYLWWVNNQSLPVSPRLQLSNGNRTLTLFNVTRNDTASYKCETQNPVSARRSDSVILNVLYGPDAPTISPLNTSYRSGENLNLSCHAASNPPAQYSWFVNGTFQQSTQELFIPNITVNNSGSYTCQAHNSDTGLNRTTVTTITVYAEPPKPFITSNNSNPVEDEDAVALTCEPEIQNTTYLWWVNNQSLPVSPRLQLSNDNRTLTLLSVTRNDVGPYECGIQNELSVDHSDPVILNVLYGPDDPTISPSYTYYRPGVNLSLSCHAASNPPAQYSWLIDGNIQQHTQELFISNITEKNSGLYTCQANNSASGHSRTTVKTITVSAELPKPSISSNNSKPVEDKDAVAFTCEPEAQNTTYLWWVNGQSLPVSPRLQLSNGNRTLTLFNVTRNDARAYVCGIQNSVSANRSDPVTLDVLYGPDTPIISPPDSSYLSGANLNLSCHSASNPSPQYSWRINGIPQQHTQVLFIAKITPNNNGTYACFVSNLATGRNNSIVKSITVSASGTSPGLSA
  Kd: 4.09 nM
